Assay results reported in patent publication US20200199207A1 (MABYLON, published 2020).

Assays:
Assay in all cases: competition ELISA, peptide in solution vs coated Ara h 2
Peptide 1 = biological target: T1, Peptide 1 (peanut)
T1 construct: 20-mer of Ara h 2, overlap of 12 with its neighbours; also called linear Ara h 2 peptide 1
T1 peptide: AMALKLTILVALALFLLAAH
Protocol: (§1) A competition ELISA was used to evaluate binding of exemplary anti-peanut antibodies of the present invention to linear Ara h 2 epitopes. Serial dilutions of linear Ara h 2 epitopes (100 μM down to 0.19 nM; peptides with a length of 20 amino acids and an overlap of 12 amino acids between the peptides) were pre-incubated with exemplary anti-peanut antibodies ([…]) for 1 hour at room temperature. The pre-incubated antibody-epitope mixtures were subsequently incubated on plates coated with full length Ara h 2 (coating overnight at 4° C. with 0.05 μg/ml Ara h 2 in PBS, followed by wash out and blocking with 2% BSA in PBS). The plates were subsequently washed and binding of MAbs to Ara h 2 was detected HRP-conjugated goat anti human Fc-gamma-specific antibody (Jackson ImmunoResearch, West Grove, Pa., USA) followed by measurement of the HRP activity using a tetramethylbenzidine substrate solution (TMB, Sigma-Aldrich Chemie GmbH, Buchs, Switzerland). As may be seen from Table 5, exemplary anti-peanut allergen antibody 32B10 binds to different linear Ara h 2 epitopes than 12G10 and 37D5.

Peptide 2 = biological target: T2, Peptide 2 (peanut)
T2 construct: also called linear Ara h 2 peptide 2
T2 peptide: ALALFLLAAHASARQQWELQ
Protocol: as §1

Peptide 3 = biological target: T3, Peptide 3 (peanut)
T3 construct: also called linear Ara h 2 peptide 3
T3 peptide: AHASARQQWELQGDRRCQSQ
Protocol: as §1

Peptide 4 = biological target: T4, Peptide 4 (peanut)
T4 construct: also called linear Ara h 2 peptide 4
T4 peptide: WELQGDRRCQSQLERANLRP
Protocol: as §1

Peptide 5 = biological target: T5, Peptide 5 (peanut)
T5 construct: also called linear Ara h 2 peptide 5
T5 peptide: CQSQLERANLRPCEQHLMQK
Protocol: as §1

Peptide 6 = biological target: T6, Peptide 6 (peanut)
T6 construct: also called linear Ara h 2 peptide 6
T6 peptide: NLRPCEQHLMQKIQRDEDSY
Protocol: as §1

Peptide 7 = biological target: T7, Peptide 7 (peanut)
T7 construct: also called linear Ara h 2 peptide 7
T7 peptide: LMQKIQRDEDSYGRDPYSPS
Protocol: as §1

Peptide 8 = biological target: T8, Peptide 8 (peanut)
T8 construct: also called linear Ara h 2 peptide 8
T8 peptide: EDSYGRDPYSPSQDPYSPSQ
Protocol: as §1

Peptide 9 = biological target: T9, Peptide 9 (peanut)
T9 construct: also called linear Ara h 2 peptide 9
T9 peptide: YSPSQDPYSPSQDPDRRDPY
Protocol: as §1

Peptide 10 = biological target: T10, Peptide 10 (peanut)
T10 construct: also called linear Ara h 2 peptide 10
T10 peptide: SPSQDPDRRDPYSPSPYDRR
Protocol: as §1

Peptide 11 = biological target: T11, Peptide 11 (peanut)
T11 construct: also called linear Ara h 2 peptide 11
T11 peptide: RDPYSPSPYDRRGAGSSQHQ
Protocol: as §1

Peptide 12 = biological target: T12, Peptide 12 (peanut)
T12 construct: also called linear Ara h 2 peptide 12
T12 peptide: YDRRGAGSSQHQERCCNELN
Protocol: as §1

Peptide 13 = biological target: T13, Peptide 13 (peanut)
T13 construct: also called linear Ara h 2 peptide 13
T13 peptide: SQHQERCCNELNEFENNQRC
Protocol: as §1

Peptide 14 = biological target: T14, Peptide 14 (peanut)
T14 construct: also called linear Ara h 2 peptide 14
T14 peptide: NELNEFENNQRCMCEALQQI
Protocol: as §1

Peptide 15 = biological target: T15, Peptide 15 (peanut)
T15 construct: also called linear Ara h 2 peptide 15
T15 peptide: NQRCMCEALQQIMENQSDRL
Protocol: as §1

Peptide 16 = biological target: T16, Peptide 16 (peanut)
T16 construct: also called linear Ara h 2 peptide 16
T16 peptide: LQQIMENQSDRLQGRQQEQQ
Protocol: as §1

Peptide 17 = biological target: T17, Peptide 17 (peanut)
T17 construct: also called linear Ara h 2 peptide 17
T17 peptide: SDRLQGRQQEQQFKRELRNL
Protocol: as §1

Peptide 18 = biological target: T18, Peptide 18 (peanut)
T18 construct: also called linear Ara h 2 peptide 18
T18 peptide: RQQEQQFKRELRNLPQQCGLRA
Protocol: as §1

Peptide 19 = biological target: T19, Peptide 19 (peanut)
T19 construct: also called linear Ara h 2 peptide 19
T19 peptide: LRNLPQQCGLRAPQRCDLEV
Protocol: as §1

Peptide 20 = biological target: T20, Peptide 20 (peanut)
T20 construct: also called linear Ara h 2 peptide 20
T20 peptide: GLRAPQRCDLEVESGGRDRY
Protocol: as §1

Measured: binding result

B1: h2F8 (antibody, V domains shown)
VH: EVQLVESGGGLVKPGGSLRLSCAASGFIFSDYNMNWVRQAPGKGLEWVSSITRSSRTIYYADSVKGRFTISRDNAKNSLHLQMNSLRDADTAVYYCAREDFDVSTGPYYMDVWGNGTTVIVSS
VL: EIVLTQSPGTLSLSPGERATLSCRASQSVSNMFLVWYQQKPGQAPRLLMYGASTRATDIPDRFSGSGSGTDFTLTISRLEPEDFAVYYCQQNGNSPYTFGQGTKLEIK
notes: Recombinant human IgG; also called hMAb 2F8
no binding (tested: 100 µM): Peptide 1 | Peptide 2 | Peptide 3 | Peptide 4 | Peptide 5 | Peptide 6 | Peptide 7 | Peptide 8 | Peptide 9 | Peptide 10 | Peptide 11 | Peptide 12 | Peptide 13 | Peptide 14 | Peptide 15 | Peptide 16 | Peptide 17 | Peptide 18 | Peptide 19 | Peptide 20

B2: h7G6 (antibody, V domains shown)
VH: QVQLVESGGGVVQPGRSLRLSCAASGIAFNDYTMHWVRRSPDKGLEWVAAISYGGTNKYYADSVKGRFTISRDSSKNTLFLQMDSLRVEDTAVYYCARDSGYRSLLHWGQGTLVTVSS
VL: EIVLTQSPLSLPVTPGEPASISCRSSQSLVHRNGYNYLDWYLQKPGQSPQLLIYMASKRASGVPDRFSGSGSGTEFTLKISRVEAEDVGIYYCMQALQTWTFGQGTKVEVN
notes: Recombinant human IgG; also called hMAb 7G6
no binding (tested: 100 µM): Peptide 1 | Peptide 2 | Peptide 3 | Peptide 4 | Peptide 5 | Peptide 6 | Peptide 7 | Peptide 8 | Peptide 9 | Peptide 10 | Peptide 11 | Peptide 12 | Peptide 13 | Peptide 14 | Peptide 15 | Peptide 16 | Peptide 17 | Peptide 18 | Peptide 19 | Peptide 20
